Measured values as given in the DeepSol protein solubility set.

Test: soluble on expression in E. coli; label from the status in PepcDB or PDB records

Sequence | soluble on expression in E. coli
MSYQGRARKFLESASIDVGDMVLVEKPDVTYEGMVLDRADDADDRHIVLKLENGYNIGVEISDARIELLEKGSEPRIELPPVEAAEDPELPDVSIISTGGTVASIIDYRTGAVHPAFTADDLLRANPELLDIANIRGRAVFNILSENMKPEYWVETARAVYGEIKDGADGVVVAHGTDTMHYTSAALSFMLRTPVPVVFTGAQRSSDRPSSDASLNIQCSVRAATSEIAEVTVCMHATMDDLSCHLHRGVKVRKMHTSRRDTFRSMNALPLAEVTPDGIKILEENYRKRGSDELELSDRVEERVAFIKSYPGISPDIIKWHLDEGYRGIVIEGTGLGHCPDTLIPVIGEAHDMGVPVAMTSQCLNGRVNMNVYSTGRRLLQAGVIPCDDMLPEVAYVKMCWVLGQTDDPEMAREMMRENIAGEINERTSIAYFRG | soluble
GERLSMEDAVKLYESDEVEKMGAAANQIMLKWHPEPITTFVIGRNVNYTNFCDTYCRFCAFYRAPGHKEGYVLDDEVILKKIQETIDVGGTEILMQGGTNPDLTIDYYTDLLRNIKERFPNIWMHSFSPAEVWKIAEVSSMSVEEVLRELHEAGLDSMPGGGAEILTEETRLRVSRLKITWEQWINAMKATKKVGMHGTATMVIGFGESFEERALHLQRVRDAQDETECFTAFISWLFQPENTGMYKTKKLTPRDYLKNVAISRLFLDNIPNFQSSWVTMGPEVGKLSLQYGCNDFGSTMIEENVVSAAGTTHKVNTNKILQLIREAGKIPAQR | not soluble
MGSDKIHHHHHHMSRVETIINELSLIASNPRKAMEDYKKETGKGAVGIMPVYAPEELVHAAGFLPMGIWGGQKSISKARTYLPPFACSIMQSVMEMQLEGVYDDLEAVIFSVPCDTLKCLSQKWKGKSPVIVFTHPQNRKLEAANKFLVEEFKLVREKLEKILNVKITDEAINNSIEVYNENRKVMREFSDIAGQYSKTISAAARHAVIKARFFMEKSKHTAMVRELINELKAMPAEECGKKVVLTGIMAEPNEVLDILTENGFTVVADDLAQESRQFRLDVPAGTDPLYRLAEWWQQFDGCALATNVKKPRGQMLMDMVKKYDADAVIVCMMKFCDPEEFDYPIYYSQFEEAGIKSLYIEIDQESTSFEQIKTRVQSFGEML | not soluble
MAQLYFYYSAMNAGKSTALLQSSYNYQERGMRTVVYTAEIDDRFGAGKVSSRIGLSSPAKLFNQNTSLFEEIRAESARQTIHCVLVDESQFLTRQQVYQLSEVVDKLDIPVLCYGLRTDFRGELFVGSQYLLAWSDKLVELKTICFCGRKASMVLRLDQDGRPYNEGEQVVIGGNERYVSVCRKHYKDALEEGSLTAIQERHRHILEHHHHHH | soluble
MYWLFKSEPFKWSWEMQKARGEKGEQWDGVRNYQARNNMRAMKLGDKGFFYHSNEGLEVVGIVEVCALAHPDSTTDDPRWECVDIKAVRDMPKPVTLKDVKANPRLQDMSLVTSMRLSVQPVTEDEWIEVCRMGGLDANDILEHHHHHH | soluble
MNSNANNTPIAIGISQVFPCSYLDGQQEQLLVIQEETLDPILFERLLAIGFRRSGSAIYKPRCPRCSACQPIRVPIQEFVPSKRQKRTLAHNRDLTWRITTEHTETQYALYEKYIRERHFDGPMYPPSKAQYEQFLFCHWLPPTFIEVYDDNRLVAVAVTDTLPNSFSAIYSYFDPDEERRSLGVLLILLQCRLAKLQGKAFLYLGYQIDANRKMSYKRLYRPYQILTHQGWEYSQVCLEHHHHHH | not soluble
MAFSIPPLPWGYDGLAAKGISKEQVTFHYDKHHMGYVTKLNAAANSNPALAAKSVEEIIRTEKGPIFNLAAQIFNHNFYWESMSPNGGGEPSGKLAEAIRASFGSFAKFKEEFTNAAVGHFGSGWAWLVQDTTTKKLKVFQTHDAGCPLTEADLKPILTCDVWEHAYYIDYKNDRPAYVQTFWNVVNWDHAENQFTR | soluble
MSLQDSLFQTETGFQPLAARMRPTSLEGYVGQAHLVGPGKPLRRAVEQGQLHSMILWGPPGVGKTTFARLLANVGDLSFETISAVLSGVKEIREVVERARNRKQSQGRDTLLFVDEVHRFNKSQQDAFLPHIEDGTFIFVGATTENPSFELNSALLSRTRVYVLKNLEAADIRRLLDSALESEQGFAGQLRVEESVLATMAEASGGDARRALNILEVAADLAEPDDDGNNRVTAQTLEQVLQTSLRRFDKGGDVFYDQISALHKSVRGSNPDGSLYWLCRMLDGGCDPLYVARRLVRIASEDIGNADPRALQITLQAWDAQERLGSPEGELALAQAVTYLALAPKSNAVYKAYNQCIADIRSDPDYEVPVHLRNAPTKLLKSMGHGEEYRYAHDEPDAYAAGEAYLPEAIYQRRYYQPVQRGLEIKLAEKRERLDSLDANSPKKREGHHHHHH | soluble
MFYEKIQTPAYILEEDKLRKNCELLASVGEKSGAKVLLALKGFAFSGAMKIVGEYLKGCTCSGLWEAKFAKEYMDKEIHTYSPAFKEDEIGEIASLSHHIVFNSLAQFHKFQAKTQKNSLGLRCNVEFSLAPKELYNPCGRYSRLGIRAKDFENVDLSTIEGLHFHALCEESAGALEAVLKVFEEKFGKWIGQMKWVNFGGGHHITKKGYDVEKLIALCKNFSDKYGVQVYLEPGEAVGWQTGNLVASVVDIIENEKQIAILDTSSEAHMPDTIIMPYTSEVLNARILATRENEKISDLKESEFSYLLTGNTCLAGDVMGEYAFDKKLKIGDKIVFLDQIHYTIVKNTTFNGIRLPNLMLLNAKNELQMIREFSYKDYSLRN | not soluble
MTESPTTHHGAAPPDSVATPVRPWSEFRLTPAEAAAAAALAARCAQRYDETDGPEFLLDAPVIAHELPKRLRTFMARARLDAWPHALVVRGNPVDDAALGSTPVHWRTARTPGSRPLSFLLMLYAGLLGDVFGWATQQDGRVVTDVLPIKGGEHTLVSSSSRQELGWHTEDAFSPYRADYVGLLSLRNPDGVATTLAGVPLDDLDERTLDVLFQERFLIRPDDSHLQVNNSTAQQGRVEFEGIAQAADRPEPVAILTGHRAAPHLRVDGDFSAPAEGDEEAAAALGTLRKLIDASLYELVLDQGDVAFIDNRRAVHGRRAFQPRYDGRDRWLKRINITRDLHRSRKAWAGDSRVLGQR | soluble
MSRPTLQVDLLVESFNYKAWSDRRTLDAIARIDAEAFPASLAFALQQLNHMAIVEELFRARLLGEPAPHQQTNSEVVPGYDVLRRRLEDSAAWFAGYVAELPLERRGEWLRFRFADGRDGGMTRQEILFHIVNHGTYHRGAIGHALDLAGAPRPADTYTLYIHSAQPERRE | not soluble
MDLLERLGLGGRRVLILHHDDLGLTHAQNGAYQALGLPTGSVMVPGAWASGVKGEDLGVHLVLTSEWPAPRMRPLTEGESLRDEAGYFPESLEALWRKARAEEVERELKAQIQAAAKLFSPTHLDAHQGAVLRPDLAEVYLRLAEAYRLVPLVPESLEGLGVPPPFLPELERLLYETPFPQVRFLDPYGLPPEERLGFYLDLAHLPPGLYYLVHHSALPTPEGRALPDWPTREADYFALSHPEVRRVLAEFHPLTWRAVREALF | soluble
MGKNKQNKFFQMKASANGKTADVFIYGEITKYAWEEYGEVSSITFKNELDELGDDIKTINLYINSPGGSVFETMAIIAMLQRHHAKIISYIDGIGASCASVLPMISDKIIMYANSMMMIHNAWTYASGNADQLRKAADDIERINQSMVQHYLTRAGDKLDEDTLKQLLDAETWLSAEEAMGYGLCDEIIPANNATACLDEKWMKEYKNIPQQLVNAQANISSNEMLERQKIAEEAKANADYIKTILGRIHS | not soluble
MSLKSSFYYHRTMLGDKDKYADLKQRITALYHKHKGRYGYRRMTVALKHLGVHHNHKLIAKLMKQLTLSAKIRRQKYRSYKGQQGKIAKNYLKRRFKASKPHKRWLTDITEFKVGDHKLYLSPILDCYNNEIVSYTLSRRPTYDLVSQMLDKALDKTGKHRHKTLMLHSDQGWHYQMKPFREMLKKHQIKQSMSRKGNCLDNALMEGFFGTLKCETIYIEKPKTIEALERQIHEYIHYYNHERIQLKLKGLSPVQYRTQSLKEGHHHHHH | not soluble
GHHHHHHAIAENLYFQSSRNPEVLWAQRSDKVYLTVALPDAKDISVKCEPQGLFSFSALGAQGERFEFSLELYGKIMTEYRKNVGLRNIIFSIQKEERSWWTRLLKSEEKPAPYIKVDWNKWCDEDEEVNSETASDDESAFVNQDSESSDDDGLLYLPDLEKARNK | soluble
